According to patent publication US11795460B2, “Compositions and methods for TTR gene editing and treating ATTR amyloidosis” (Intellia Therapeutics, Inc., priority 2017, dated 2023):
Strand notation (5' to 3'): a small letter for the sugar, then the base; units joined by * are phosphorothioate-linked, units joined directly phosphodiester-linked; [ ] holds rarer units or linkages, { } end groups; capitals alone tell only the bases. m = 2'-O-methyl; r = 2'-OH (RNA)

B1: G000480: TTR sgRNA modified sequence, Human, SEQ ID No. 87; guide sequence of CR003353 (nucleic acid)
guide: mA*mA*mA*rGrGrCrUrGrCrUrGrArUrGrArCrArCrCrUrGrUrUrUrUrArGrAmGmCmUmAmGmAmAmAmUmAmGmCrArArGrUrUrArArArArUrArArGrGrCrUrArGrUrCrCrGrUrUrArUrCrAmAmCmUmUmGmAmAmAmAmAmGmUmGmGmCmAmCmCmGmAmGmUmCmGmGmUmGmCmU*mU*mU*mU
B2: G000484: TTR sgRNA modified sequence, Human, SEQ ID No. 91; guide sequence of CR003367 (nucleic acid)
guide: mA*mG*mA*rCrArCrCrArArArUrCrUrUrArCrUrGrGrArGrUrUrUrUrArGrAmGmCmUmAmGmAmAmAmUmAmGmCrArArGrUrUrArArArArUrArArGrGrCrUrArGrUrCrCrGrUrUrArUrCrAmAmCmUmUmGmAmAmAmAmAmGmUmGmGmCmAmCmCmGmAmGmUmCmGmGmUmGmCmU*mU*mU*mU
B3: G000489: TTR sgRNA modified sequence, Human, SEQ ID No. 96; guide sequence of CR003344 (nucleic acid)
guide: mU*mU*mU*rGrArCrCrArUrCrArGrArGrGrArCrArCrUrGrUrUrUrUrArGrAmGmCmUmAmGmAmAmAmUmAmGmCrArArGrUrUrArArArArUrArArGrGrCrUrArGrUrCrCrGrUrUrArUrCrAmAmCmUmUmGmAmAmAmAmAmGmUmGmGmCmAmCmCmGmAmGmUmCmGmGmUmGmCmU*mU*mU*mU
B4: G000488: TTR sgRNA modified sequence, Human, SEQ ID No. 95; guide sequence of CR003346 (nucleic acid)
guide: mA*mA*mA*rGrUrUrCrUrArGrArUrGrCrUrGrUrCrCrGrGrUrUrUrUrArGrAmGmCmUmAmGmAmAmAmUmAmGmCrArArGrUrUrArArArArUrArArGrGrCrUrArGrUrCrCrGrUrUrArUrCrAmAmCmUmUmGmAmAmAmAmAmGmUmGmGmCmAmCmCmGmAmGmUmCmGmGmUmGmCmU*mU*mU*mU
B5: G000481: TTR sgRNA modified sequence, Human, SEQ ID No. 88; guide sequence of CR003345 (nucleic acid)
guide: mU*mC*mU*rArGrArArCrUrUrUrGrArCrCrArUrCrArGrGrUrUrUrUrArGrAmGmCmUmAmGmAmAmAmUmAmGmCrArArGrUrUrArArArArUrArArGrGrCrUrArGrUrCrCrGrUrUrArUrCrAmAmCmUmUmGmAmAmAmAmAmGmUmGmGmCmAmCmCmGmAmGmUmCmGmGmUmGmCmU*mU*mU*mU
B6: G000493: TTR sgRNA modified sequence, Human, SEQ ID No. 100; guide sequence of CR003368 (nucleic acid)
guide: mA*mA*mG*rUrGrCrCrUrUrCrCrArGrUrArArGrArUrUrGrUrUrUrUrArGrAmGmCmUmAmGmAmAmAmUmAmGmCrArArGrUrUrArArArArUrArArGrGrCrUrArGrUrCrCrGrUrUrArUrCrAmAmCmUmUmGmAmAmAmAmAmGmUmGmGmCmAmCmCmGmAmGmUmCmGmGmUmGmCmU*mU*mU*mU
B7: G000483: TTR sgRNA modified sequence, Human, SEQ ID No. 90; guide sequence of CR005298 (nucleic acid)
guide: mU*mC*mC*rArCrUrCrArUrUrCrUrUrGrGrCrArGrGrArGrUrUrUrUrArGrAmGmCmUmAmGmAmAmAmUmAmGmCrArArGrUrUrArArArArUrArArGrGrCrUrArGrUrCrCrGrUrUrArUrCrAmAmCmUmUmGmAmAmAmAmAmGmUmGmGmCmAmCmCmGmAmGmUmCmGmGmUmGmCmU*mU*mU*mU
B8: G000490: TTR sgRNA modified sequence, Human, SEQ ID No. 97; guide sequence of CR003366 (nucleic acid)
guide: mA*mA*mA*rUrArGrArCrArCrCrArArArUrCrUrUrArCrGrUrUrUrUrArGrAmGmCmUmAmGmAmAmAmUmAmGmCrArArGrUrUrArArArArUrArArGrGrCrUrArGrUrCrCrGrUrUrArUrCrAmAmCmUmUmGmAmAmAmAmAmGmUmGmGmCmAmCmCmGmAmGmUmCmGmGmUmGmCmU*mU*mU*mU
B9: G000500: TTR sgRNA modified sequence, Human, SEQ ID No. 107; guide sequence of CR003337 (nucleic acid)
guide: mC*mC*mA*rGrUrCrCrArGrCrArArGrGrCrArGrArGrGrGrUrUrUrUrArGrAmGmCmUmAmGmAmAmAmUmAmGmCrArArGrUrUrArArArArUrArArGrGrCrUrArGrUrCrCrGrUrUrArUrCrAmAmCmUmUmGmAmAmAmAmAmGmUmGmGmCmAmCmCmGmAmGmUmCmGmGmUmGmCmU*mU*mU*mU
B10: G000482: TTR sgRNA modified sequence, Human, SEQ ID No. 89; guide sequence of CR003365 (nucleic acid)
guide: mU*mG*mU*rArGrArArGrGrGrArUrArUrArCrArArArGrGrUrUrUrUrArGrAmGmCmUmAmGmAmAmAmUmAmGmCrArArGrUrUrArArArArUrArArGrGrCrUrArGrUrCrCrGrUrUrArUrCrAmAmCmUmUmGmAmAmAmAmAmGmUmGmGmCmAmCmCmGmAmGmUmCmGmGmUmGmCmU*mU*mU*mU

Tests used:
[1] = system: off-target integration sites; assay: Off-target oligo insertion based assay in primary human hepatocytes (Table 30); assay type: cell-based; settings: TTR sgRNAs in PHH, 100 ng Cas9 mRNA, 25 nM sgRNA, 12.5 nM donor oligo
Description: Off-target analysis of sgRNAs targeting TTR was performed in primary human hepatocytes (PHH) as described in Example 5, with the following modifications. PHH were plated at a density of 33,000 cells per well on collagen-coated 96-well plates as described in Example 1. Twenty-four hours post plating, cells were washed with media and transfected using Lipofectamine RNAiMAX (ThermoFisher, Cat. 13778150) as described in Example 1. Cells were transfected with a lipoplex containing 100 ng Cas9 mRNA, immediately followed by the addition of another lipoplex containing 25 nM of the sgRNA and 12.5 nM of the donor oligo (0.3 μL/well). Cells were lysed 48 hours post-transfection and gDNA was extracted and analyzed as further described in Example 5. The data is graphically represented in FIG. 20.
Fewer sites were detected in PHH for every guide tested as compared to the HekCas9 cell line, with no unique sites detected in PHH alone.

[2] = system: TTR; assay: EC50 and maximum editing in primary cyno hepatocytes treated with LNP formulated U-depleted Spy Cas9 mRNA and sgRNAs (Tables 20, 22); assay type: cell-based, cynomolgus monkey; design: key: % of sequence reads with indels or substitutions over total reads; settings: Table 20, LNP with U-depleted Spy Cas9 mRNA and human specific sgRNAs, dose response
Description: (§1) Primary liver hepatocytes. Primary human liver hepatocytes (PHH) and primary cynomolgus liver hepatocytes (PCH) (Gibco) were cultured per the manufacturer's protocol (Invitrogen, protocol 11.28.2012). In brief, the cells were thawed and resuspended in hepatocyte thawing medium with supplements (Gibco, Cat. CM7000) followed by centrifugation at 100 g for 10 minutes for human and 80 g for 4 minutes for cyno. The supernatant was discarded and the pelleted cells resuspended in hepatocyte plating medium plus supplement pack (Invitrogen, Cat. A1217601 and CM3000). Cells were counted and plated on Bio-coat collagen I coated 96-well plates (ThermoFisher, Cat. 877272) at a density of 33,000 cells/well for human or 60,000 cells/well for cyno (or 65,000 cells/well when assaying effects on TTR protein, described further below). Plated cells were allowed to settle and adhere for 6 or 24 hours in a tissue culture incubator at 37° C. and 5% CO2 atmosphere. After incubation cells were checked for monolayer formation and media was replaced with hepatocyte culture medium with serum-free supplement pack (Invitrogen, Cat. A1217601 and CM4000).
For LNPs prepared using the cross-flow technique, the LNPs were formed by impinging jet mixing of the lipid in ethanol with two volumes of RNA solutions and one volume of water. The lipid in ethanol is mixed through a mixing cross with the two volumes of RNA solution. A fourth stream of water is mixed with the outlet stream of the cross through an inline tee. (See WO2016010840 FIG. 2.) The LNPs were held for 1 hour at room temperature, and further diluted with water (approximately 1:1 v/v). Diluted LNPs were concentrated using tangential flow filtration on a flat sheet cartridge (Sartorius, 100 kD MWCO) and then buffer exchanged by diafiltration into 50 mM Tris, 45 mM NaCl, 5% (w/v) sucrose, pH 7.5 (TSS). Alternatively, the final buffer exchange into TSS was completed with PD-10 desalting columns (GE). If required, formulations were concentrated by centrifugation with Amicon 100 kDa centrifugal filters (Millipore). The resulting mixture was then filtered using a 0.2 μm sterile filter. The final LNP was stored at 4° C. or −80° C. until further use.
(§2) To quantitatively determine the efficiency of editing at the target location in the genome, sequencing was utilized to identify the presence of insertions and deletions introduced by gene editing.
(§3) Primers were designed around the target site within the gene of interest (e.g. TTR), and the genomic area of interest was amplified.
(§4) Additional PCR was performed per the manufacturer's protocols (Illumina) to add chemistry for sequencing. The amplicons were sequenced on an Illumina MiSeq instrument. The reads were aligned to a reference genome (e.g., the human reference genome (hg38), the cynomologus reference genome (mf5), the rat reference genome (rn6), or the mouse reference genome (mm10)) after eliminating those having low quality scores. The resulting files containing the reads were mapped to the reference genome (BAM files), where reads that overlapped the target region of interest were selected and the number of wild type reads versus the number of reads which contain an insertion, substitution, or deletion was calculated.
(§5) The editing percentage (e.g., the “editing efficiency” or “percent editing” or “indel frequency”) is defined as the total number of sequence reads with insertions/deletions (“indels”) or substitutions over the total number of sequence reads, including wild type.
Lipid nanoparticle formulations of modified sgRNAs targeting human TTR and the cyno matched sgRNA sequences were tested on primary human hepatocytes and primary cyno hepatocytes in a dose response curve. Primary human and cyno hepatocytes were plated as described in Example 1. Both cell lines were incubated at 37° C., 5% CO2 for 24 hours prior to treatment with LNPs. […]

[3] = system: TTR; assay: TTR editing in primary human hepatocytes transfected with Spy Cas9 protein and sgRNAs (Table 12); assay type: cell-based; settings: primary human hepatocytes transfected with Spy Cas9 protein (RNP) and sgRNAs
Description: as §1
Ribonucleotide formation was performed prior to electroporation or transfection of Spy Cas9 protein loaded with guide RNAs (RNPs) onto cells. For dual guide (dgRNAs), individual crRNA and trRNA was pre-annealed by mixing equivalent amounts of reagent and incubating at 95° C. for 2 min and cooling to room temperature. Single guide (sgRNAs) were boiled at 95° C. for 2 min and cooling to room temperature. The boiled dgRNA or sgRNA was incubated with Spy Cas9 protein in Optimem for 10 minutes at room temperature to form a ribonucleoprotein (RNP) complex.
For RNP lipoplex transfections, cells were transfected with Lipofectamine RNAiMAX (ThermoFisher, Cat. 13778150) per the manufacturer's protocol. Cells were transfected with an RNP containing Spy Cas9 (10 nM), individual guide (10 nM), tracer RNA (10 nM), Lipofectamine RNAiMAX (1.0 μL/well) and OptiMem. RNP formation was performed as described above.
Transfected cells were harvested post-transfection at 24, 48, or 72 hours. The genomic DNA was extracted from each well of a 96-well plate using 50 μL/well BuccalAmp DNA Extraction solution (Epicentre, Cat. QE09050) per manufacturer's protocol. All DNA samples were subjected to PCR and subsequent NGS analyses, as described herein.
as §2, §3, §4, §5
Guides in modified sgRNA format targeting human and/or cyno TTR were delivered to primary human hepatocytes and primary cyno hepatocytes as described in Example 1. […]

| Molecule | # Sites in PHH [1] | Max Editing [2] | Avg % Deletion [3] [%] | Avg % Edit [3] [%] | Avg % Insert [3] [%] |
| --- | --- | --- | --- | --- | --- |
| B1 | 2 | 20.32 | 4.70 | 81.80 | 77.15 |
| B2 | 0 | 0.22 | 33.83 | 62.97 | 29.23 |
| B3 | 2 | 89.21 | 9.43 | 60.17 | 51.07 |
| B4 | 0 | 21.63 | 35.00 | 61.27 | 26.30 |
| B5 | 0 | 95.07 | 19.43 | 46.90 | 27.77 |
| B6 | 1 | 61.15 | 2.67 | 41.40 | 38.90 |
| B7 | 0 | 56.52 | 28.50 | 47.90 | 19.57 |
| B8 | 0 | 90.76 | 9.80 | 55.90 | 46.13 |
| B9 | 12 | 58.04 | 3.83 | 65.53 | 62.00 |
| B10 | 2 | 97.47 | 10.10 | 66.67 | 56.57 |
